Experimental data from the supplement of paper PMC5998384.

How the values were obtained:
HeLa Kyoto [1] = assay: solubility in G1/S (NP-40 vs SDS abundance) (log2 ratio); higher = more soluble; settings: cell cycle stage: G1/S
HeLa Kyoto [2] = assay: solubility change mitosis vs G1/S (difference of NP-40 vs SDS log2 ratios) (log2 ratio difference); higher = more soluble in mitosis
HeLa Kyoto [3] = assay: melting temperature (median over replicates), in situ; higher = more thermally stable
HeLa Kyoto [4] = assay: thermal stability score vs G1/S (z-score of summed log2 fold changes over temperatures); higher = more thermally stable than in G1/S
[5] = cell cycle stage: early G1 (4.5 h after nocodazole release)
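Throughout, for melting temperature (median over replicates), in situ: HeLa Kyoto cells synchronized by double thymidine or nocodazole block, proteins quantified by TMT10plex mass spectrometry, three independent biological replicates.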
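Throughout, for solubility change mitosis vs G1/S (difference of NP-40 vs SDS log2 ratios): synchronized HeLa Kyoto cells (double thymidine block for G1/S, nocodazole release for mitosis), protein amounts in NP-40 versus SDS lysates quantified by mass spectrometry, three biological replicates.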
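Throughout, for solubility in G1/S (NP-40 vs SDS abundance): HeLa Kyoto cells arrested at G1/S by double thymidine block, proteins quantified by TMT10plex mass spectrometry in mild NP-40 versus SDS extracts, three biological replicates.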
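Throughout, for thermal stability score vs G1/S (z-score of summed log2 fold changes over temperatures): synchronized HeLa Kyoto cells, proteins quantified by TMT10plex mass spectrometry, three biological replicates, mitosis taken 0.5 h after nocodazole release, G1/S directly after double thymidine block.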

## MRSAAAAPRSPAVATESRRFAAARWPGWRSLQRPARRSGRGGGGAAPGPYPSAAPPPPGPGPPPSRQSSPPSASDCFGSNGNGGGAFRPGSRRLLGLGGPPRPFVVLLLPLASPGAPPAAPTRASPLGARASPPRSGVSLARPAPGCPRPACEPVYGPLTMSLKPQQQQQQQQQQQQQQQQQQQQQQQPPPAAANVRKPGGSGLLASPAAAPSPSSSSVSSSSATAPSSVVAATSGGGRPGLGRGRNSNKGLPQSTISFDGIYANMRMVHILTSVVGSKCEVQVKNGGIYEGVFKTYSPKCDLVLDAAHEKSTESSSGPKREEIMESILFKCSDFVVVQFKDMDSSYAKRDAFTDSAISAKVNGEHKEKDLEPWDAGELTANEELEALENDVSNGWDPNDMFRYNEENYGVVSTYDSSLSSYTVPLERDNSEEFLKREARANQLAEEIESSAQYKARVALENDDRSEEEKYTAVQRNSSEREGHSINTRENKYIPPGQRNREVISWGSGRQNSPRMGQPGSGSMPSRSTSHTSDFNPNSGSDQRVVNGGVPWPSPCPSPSSRPPSRYQSGPNSLPPRAATPTRPPSRPPSRPSRPPSHPSAHGSPAPVSTMPKRMSSEGPPRMSPKAQRHPRNHRVSAGRGSISSGLEFVSHNPPSEAATPPVARTSPSGGTWSSVVSGVPRLSPKTHRPRSPRQNSIGNTPSGPVLASPQAGIIPTEAVAMPIPAASPTPASPASNRAVTPSSEAKDSRLQDQRQNSPAGNKENIKPNETSPSFSKAENKGISPVVSEHRKQIDDLKKFKNDFRLQPSSTSESMDQLLNKNREGEKSRDLIKDKIEPSAKDSFIENSSSNCTSGSSKPNSPSISPSILSNTEHKRGPEVTSQGVQTSSPACKQEKDDKEEKKDAAEQVRKSTLNPNAKEFNPRSFSQPKPSTTPTSPRPQAQPSPSMVGHQQPTPVYTQPVCFAPNMMYPVPVSPGVQPLYPIPMTPMPVNQAKTYRAVPNMPQQRQDQHHQSAMMHPASAAGPPIAATPPAYSTQYVAYSPQQFPNQPLVQHVPHYQSQHPHVYSPVIQGNARMMAPPTHAQPGLVSSSATQYGAHEQTHAMYACPKLPYNKETSPSFYFAISTGSLAQQYAHPNATLHPHTPHPQPSATPTGQQQSQHGGSHPAPSPVQHHQHQAAQALHLASPQQQSAIYHAGLAPTPPSMTPASNTQSPQNSFPAAQQTVFTIHPSHVQPAYTNPPHMAHVPQAHVQSGMVPSHPTAHAPMMLMTTQPPGGPQAALAQSALQPIPVSTTAHFPYMTHPSVQAHHQQQL [ATXN2]
HeLa Kyoto [1]
  solubility in G1/S (log2): -0.281
HeLa Kyoto [2]
  solubility change mitosis (log2): 0.278
HeLa Kyoto [3]; cell cycle stage: G1/S
  melting temperature: 52.5 °C
HeLa Kyoto [3]; cell cycle stage: mitosis
  melting temperature: 51.9 °C
HeLa Kyoto [4]; [5]
  thermal stability score: -0.37
HeLa Kyoto [4]; cell cycle stage: mitosis
  thermal stability score: -1.31

## MSTEGGFGGTSSSDAQQSLQSFWPRVMEEIRNLTVKDFRVQELPLARIKKIMKLDEDVKMISAEAPVLFAKAAQIFITELTLRAWIHTEDNKRRTLQRNDIAMAITKFDQFDFLIDIVPRDELKPPKRQEEVRQSVTPAEPVQYYFTLAQQPTAVQVQGQQQGQQTTSSTTTIQPGQIIIAQPQQGQTTPVTMQVGEGQQVQIVQAQPQGQAQQAQSGTGQTMQVMQQIITNTGEIQQIPVQLNAGQLQYIRLAQPVSGTQVVQGQIQTLATNAQQGQRNASQGKPRRCLKETLQITQTEVQQGQQQFSQFTDGQRNSVQQARVSELTGEAEPREVKATGNSTPCTSSLPTTHPPSHRAGASCVCCSQPQQSSTSPPPSDALQWVVVEVSGTPNQLETHRELHAPLPGMTSLSPLHPSQQLYQIQQVTMPAGQDLAQPMFIQSANQPSDGQAPQVTGD [NFYC]
HeLa Kyoto [1]
  solubility in G1/S (log2): 0.266
HeLa Kyoto [2]
  solubility change mitosis (log2): -0.174
HeLa Kyoto [3]; cell cycle stage: G1/S
  melting temperature: 54.7 °C
HeLa Kyoto [3]; cell cycle stage: mitosis
  melting temperature: 54.3 °C
HeLa Kyoto [4]; [5]
  thermal stability score: -0.186
HeLa Kyoto [4]; cell cycle stage: mitosis
  thermal stability score: -0.549

## MGTRLPLVLRQLRRPPQPPGPPRRLRVPCRASSGGGGGGGGGREGLLGQRRPQDGQARSSCSPGGRTPAARDSIVREVIQNSKEVLSLLQEKNPAFKPVLAIIQAGDDNLMQEINQNLAEEAGLNITHICLPPDSSEAEIIDEILKINEDTRVHGLALQISENLFSNKVLNALKPEKDVDGVTDINLGKLVRGDAHECFVSPVAKAVIELLEKSGVNLDGKKILVVGAHGSLEAALQCLFQRKGSMTMSIQWKTRQLQSKLHEADIVVLGSPKPEEIPLTWIQPGTTVLNCSHDFLSGKVGCGSPRIHFGGLIEEDDVILLAAALRIQNMVSSGRRWLREQQHRRWRLHCLKLQPLSPVPSDIEISRGQTPKAVDVLAKEIGLLADEIEIYGKSKAKVRLSVLERLKDQADGKYVLVAGITPTPLGEGKSTVTIGLVQALTAHLNVNSFACLRQPSQGPTFGVKGGAAGGGYAQVIPMEEFNLHLTGDIHAITAANNLLAAAIDTRILHENTQTDKALYNRLVPLVNGVREFSEIQLARLKKLGINKTDPSTLTEEEVSKFARLDIDPSTITWQRVLDTNDRFLRKITIGQGNTEKGHYRQAQFDIAVASEIMAVLALTDSLADMKARLGRMVVASDKSGQPVTADDLGVTGALTVLMKDAIKPNLMQTLEGTPVFVHAGPFANIAHGNSSVLADKIALKLVGEEGFVVTEAGFGADIGMEKFFNIKCRASGLVPNVVVLVATVRALKMHGGGPSVTAGVPLKKEYTEENIQLVADGCCNLQKQIQITQLFGVPVVVALNVFKTDTRAEIDLVCELAKRAGAFDAVPCYHWSVGGKGSVDLARAVREAASKRSRFQFLYDVQVPIVDKIRTIAQAVYGAKDIELSPEAQAKIDRYTQQGFGNLPICMAKTHLSLSHQPDKKGVPRDFILPISDVRASIGAGFIYPLVGTMSTMPGLPTRPCFYDIDLDTETEQVKGLF [MTHFD1L]
HeLa Kyoto [1]
  solubility in G1/S (log2): 0.247
HeLa Kyoto [2]
  solubility change mitosis (log2): -0.101
HeLa Kyoto [3]; cell cycle stage: G1/S
  melting temperature: 51.7 °C
HeLa Kyoto [3]; cell cycle stage: mitosis
  melting temperature: 51.5 °C
HeLa Kyoto [4]; [5]
  thermal stability score: -0.3
HeLa Kyoto [4]; cell cycle stage: mitosis
  thermal stability score: 0.0484

## UNC119B
HeLa Kyoto [1]
  solubility in G1/S (log2): 0.268
HeLa Kyoto [2]
  solubility change mitosis (log2): -0.089
HeLa Kyoto [3]; cell cycle stage: G1/S
  melting temperature: 50.6 °C
HeLa Kyoto [3]; cell cycle stage: mitosis
  melting temperature: 50.3 °C
HeLa Kyoto [4]; [5]
  thermal stability score: -0.908
HeLa Kyoto [4]; cell cycle stage: mitosis
  thermal stability score: -0.273

## MELSAVGERVFAAEALLKRRIRKGRMEYLVKWKGWSQKYSTWEPEENILDARLLAAFEEREREMELYGPKKRGPKPKTFLLKAQAKAKAKTYEFRSDSARGIRIPYPGRSPQDLASTSRAREGLRNMGLSPPASSTSTSSTCRAEAPRDRDRDRDRDRERDRERERERERERERERERERGTSRVDDKPSSPGDSSKKRGPKPRKELPDPSQRPLGEPSAGLGEYLKGRKLDDTPSGAGKFPAGHSVIQLARRQDSDLVQCGVTSPSSAEATGKLAVDTFPARVIKHRAAFLEAKGQGALDPNGTRVRHGSGPPSSGGGLYRDMGAQGGRPSLIARIPVARILGDPEEESWSPSLTNLEKVVVTDVTSNFLTVTIKESNTDQGFFKEKR [CBX8]
HeLa Kyoto [1]
  solubility in G1/S (log2): -0.615
HeLa Kyoto [2]
  solubility change mitosis (log2): 0.612
HeLa Kyoto [3]; cell cycle stage: G1/S
  melting temperature: 46.1 °C
HeLa Kyoto [3]; cell cycle stage: mitosis
  melting temperature: 49.5 °C
HeLa Kyoto [4]; [5]
  thermal stability score: 2.83
HeLa Kyoto [4]; cell cycle stage: mitosis
  thermal stability score: 5.27

## MSCPVPACCALLLVLGLCRARPRNALLLLADDGGFESGAYNNSAIATPHLDALARRSLLFRNAFTSVSSCSPSRASLLTGLPQHQNGMYGLHQDVHHFNSFDKVRSLPLLLSQAGVRTGIIGKKHVGPETVYPFDFAYTEENGSVLQVGRNITRIKLLVRKFLQTQDDRPFFLYVAFHDPHRCGHSQPQYGTFCEKFGNGESGMGRIPDWTPQAYDPLDVLVPYFVPNTPAARADLAAQYTTVGRMDQGVGLVLQELRDAGVLNDTLVIFTSDNGIPFPSGRTNLYWPGTAEPLLVSSPEHPKRWGQVSEAYVSLLDLTPTILDWFSIPYPSYAIFGSKTIHLTGRSLLPALEAEPLWATVFGSQSHHEVTMSYPMRSVQHRHFRLVHNLNFKMPFPIDQDFYVSPTFQDLLNRTTAGQPTGWYKDLRHYYYRARWELYDRSRDPHETQNLATDPRFAQLLEMLRDQLAKWQWETHDPWVCAPDGVLEEKLSPQCQPLHNEL [SGSH]
HeLa Kyoto [1]
  solubility in G1/S (log2): 0.401
HeLa Kyoto [2]
  solubility change mitosis (log2): -0.261
HeLa Kyoto [3]; cell cycle stage: G1/S
  melting temperature: 53.5 °C
HeLa Kyoto [3]; cell cycle stage: mitosis
  melting temperature: 58 °C
HeLa Kyoto [4]; [5]
  thermal stability score: -1.28
HeLa Kyoto [4]; cell cycle stage: mitosis
  thermal stability score: -1.81

## MASVAAARAVPVGSGLRGLQRTLPLVVILGATGTGKSTLALQLGQRLGGEIVSADSMQVYEGLDIITNKVSAQEQRICRHHMISFVDPLVTNYTVVDFRNRATALIEDIFARDKIPIVVGGTNYYIESLLWKVLVNTKPQEMGTEKVIDRKVELEKEDGLVLHKRLSQVDPEMAAKLHPHDKRKVARSLQVFEETGISHSEFLHRQHTEEGGGPLGGPLKFSNPCILWLHADQAVLDERLDKRVDDMLAAGLLEELRDFHRRYNQKNVSENSQDYQHGIFQSIGFKEFHEYLITEGKCTLETSNQLLKKGIEALKQVTKRYARKQNRWVKNRFLSRPGPIVPPVYGLEVSDVSKWEESVLEPALEIVQSFIQGHKPTATPIKMPYNEAENKRSYHLCDLCDRIIIGDREWAAHIKSKSHLNQLKKRRRLDSDAVNTIESQSVSPDHNKEPKEKGSPGQNDQELKCSV [TRIT1]
HeLa Kyoto [1]
  solubility in G1/S (log2): 0.0861
HeLa Kyoto [2]
  solubility change mitosis (log2): -0.137
HeLa Kyoto [3]; cell cycle stage: G1/S
  melting temperature: 53.3 °C
HeLa Kyoto [3]; cell cycle stage: mitosis
  melting temperature: 49.1 °C
HeLa Kyoto [4]; [5]
  thermal stability score: -0.00673
HeLa Kyoto [4]; cell cycle stage: mitosis
  thermal stability score: 0.208

## MAGAASPCANGCGPGAPSDAEVLHLCRSLEVGTVMTLFYSKKSQRPERKTFQVKLETRQITWSRGADKIEGAIDIREIKEIRPGKTSRDFDRYQEDPAFRPDQSHCFVILYGMEFRLKTLSLQATSEDEVNMWIKGLTWLMEDTLQAPTPLQIERWLRKQFYSVDRNREDRISAKDLKNMLSQVNYRVPNMRFLRERLTDLEQRSGDITYGQFAQLYRSLMYSAQKTMDLPFLEASTLRAGERPELCRVSLPEFQQFLLDYQGELWAVDRLQVQEFMLSFLRDPLREIEEPYFFLDEFVTFLFSKENSVWNSQLDAVCPDTMNNPLSHYWISSSHNTYLTGDQFSSESSLEAYARCLRMGCRCIELDCWDGPDGMPVIYHGHTLTTKIKFSDVLHTIKEHAFVASEYPVILSIEDHCSIAQQRNMAQYFKKVLGDTLLTKPVEISADGLPSPNQLKRKILIKHKKLAEGSAYEEVPTSMMYSENDISNSIKNGILYLEDPVNHEWYPHYFVLTSSKIYYSEETSSDQGNEDEEEPKEVSSSTELHSNEKWFHGKLGAGRDGRHIAERLLTEYCIETGAPDGSFLVRESETFVGDYTLSFWRNGKVQHCRIHSRQDAGTPKFFLTDNLVFDSLYDLITHYQQVPLRCNEFEMRLSEPVPQTNAHESKEWYHASLTRAQAEHMLMRVPRDGAFLVRKRNEPNSYAISFRAEGKIKHCRVQQEGQTVMLGNSEFDSLVDLISYYEKHPLYRKMKLRYPINEEALEKIGTAEPDYGALYEGRNPGFYVEANPMPTFKCAVKALFDYKAQREDELTFIKSAIIQNVEKQEGGWWRGDYGGKKQLWFPSNYVEEMVNPVALEPEREHLDENSPLGDLLRGVLDVPACQIAIRPEGKNNRLFVFSISMASVAHWSLDVAADSQEELQDWVKKIREVAQTADARLTEGKIMERRKKIALELSELVVYCRPVPFDEEKIGTERACYRDMSSFPETKAEKYVNKAKGKKFLQYNRLQLSRIYPKGQRLDSSNYDPLPMWICGSQLVALNFQTPDKPMQMNQALFMTGRHCGYVLQPSTMRDEAFDPFDKSSLRGLEPCAISIEVLGARHLPKNGRGIVCPFVEIEVAGAEYDSTKQKTEFVVDNGLNPVWPAKPFHFQISNPEFAFLRFVVYEEDMFSDQNFLAQATFPVKGLKTGYRAVPLKNNYSEDLELASLLIKIDIFPAKENGDLSPFSGTSLRERGSDASGQLFHGRAREGSFESRYQQPFEDFRISQEHLADHFDSRERRAPRRTRVNGDNRL [PLCG1]
HeLa Kyoto [1]
  solubility in G1/S (log2): -0.111
HeLa Kyoto [2]
  solubility change mitosis (log2): -0.123
HeLa Kyoto [3]; cell cycle stage: G1/S
  melting temperature: 50.2 °C
HeLa Kyoto [3]; cell cycle stage: mitosis
  melting temperature: 50.2 °C
HeLa Kyoto [4]; [5]
  thermal stability score: -0.13
HeLa Kyoto [4]; cell cycle stage: mitosis
  thermal stability score: -0.0513
